Consider 1 substance from US20230303660A1.

This test concerns the target human 4-1BB (human) (UniProt Q07011). Put plainly: cell-based or functional assay.

human 4-1BB (human), sequence (Q07011 24-255): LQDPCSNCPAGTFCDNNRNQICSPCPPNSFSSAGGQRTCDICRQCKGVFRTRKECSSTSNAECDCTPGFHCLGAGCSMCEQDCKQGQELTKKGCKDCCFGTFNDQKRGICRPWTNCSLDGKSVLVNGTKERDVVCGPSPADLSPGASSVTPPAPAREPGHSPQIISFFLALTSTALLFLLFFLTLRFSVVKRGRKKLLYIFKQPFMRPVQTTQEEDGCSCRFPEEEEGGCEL

In turn, “human 4-1BBL expressed on T cell stimulator cells (from UniProt P41273 1-254) (ligand)” returned an NF-κB activation measured through eCFP expression (fold induction) of 2.5 fold.
